Reference: patent US20180237475A1 (BIONIZ, published 2018)

Biological target: T1, human γc-subunit (common γ subunit, CD132) (human, UniProt P31785 23-369)
T1 sequence (looked up): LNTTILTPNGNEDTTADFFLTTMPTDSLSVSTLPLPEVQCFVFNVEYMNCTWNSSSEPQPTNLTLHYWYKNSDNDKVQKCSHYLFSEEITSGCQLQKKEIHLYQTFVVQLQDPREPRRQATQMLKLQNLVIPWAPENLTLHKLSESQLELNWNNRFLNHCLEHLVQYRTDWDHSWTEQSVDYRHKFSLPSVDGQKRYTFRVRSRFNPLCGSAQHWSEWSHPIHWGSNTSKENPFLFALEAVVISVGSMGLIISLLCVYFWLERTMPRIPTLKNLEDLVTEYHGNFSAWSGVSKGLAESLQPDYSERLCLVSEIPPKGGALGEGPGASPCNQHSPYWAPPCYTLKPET
Test: cell-based or functional assay

- IC50 on IL-2/IL-15-induced (0.1 nM each) proliferation of ex vivo human T-lymphocytes: 150 nM
B1: BNZ132-1 (peptide)
peptide: IKEFLQRFIHIVQSIINTS
